Values belong to the binder of their own block, whether it stands above or below them.
Legend:
FLAG-tagged Claspin(EEN) = target: T1, FLAG-tagged Claspin(EEN) (human, UniProt Q9HAW4 1-1339, limits assumed); test: co-immunoprecipitation with anti-HA antibody from HEK293T cells, immunoblot (FIG. 3F)
T1 construct: also called mutant #2; not shown: FLAG tag
Method: (§1) HEK293T cells were cotransfected with HA-tagged Cdh1 and the indicated FLAG-tagged Claspin mutants. Whole cell extracts (WCE, bottom two panels, FIG. 3B) were immunoprecipitated (IP, upper two panels FIG. 3B) with an anti-HA antibody, and the indicated proteins were detected by immunoblotting. Finally, five unique, triple-point-mutations to Alanine across Claspin amino acids 79-102 were inserted, following the pattern of evolutionary conserved residues (FIG. 3E), and these mutants were assayed for binding to Cdh1. […] Thus, these studies identified the motif “EENxENL” (SEQ ID NO:29) located at residues 86-92 of Claspin (SEQ ID NO: 9), as the site mediating binding to Cdh1. Accordingly, in contrast to wild type Claspin, Claspin(ENL) was stable in HeLa cells progressing through G1 (FIG. 2C).

FLAG-tagged Claspin(ENL) = target: T2, FLAG-tagged Claspin(ENL) (human, UniProt Q9HAW4 1-1339, limits assumed); test: as above
T2 construct: also called mutant #3; not shown: FLAG tag
T2 sequence (Q9HAW4 other isoform, or with tags, fused parts or gaps limits assumed): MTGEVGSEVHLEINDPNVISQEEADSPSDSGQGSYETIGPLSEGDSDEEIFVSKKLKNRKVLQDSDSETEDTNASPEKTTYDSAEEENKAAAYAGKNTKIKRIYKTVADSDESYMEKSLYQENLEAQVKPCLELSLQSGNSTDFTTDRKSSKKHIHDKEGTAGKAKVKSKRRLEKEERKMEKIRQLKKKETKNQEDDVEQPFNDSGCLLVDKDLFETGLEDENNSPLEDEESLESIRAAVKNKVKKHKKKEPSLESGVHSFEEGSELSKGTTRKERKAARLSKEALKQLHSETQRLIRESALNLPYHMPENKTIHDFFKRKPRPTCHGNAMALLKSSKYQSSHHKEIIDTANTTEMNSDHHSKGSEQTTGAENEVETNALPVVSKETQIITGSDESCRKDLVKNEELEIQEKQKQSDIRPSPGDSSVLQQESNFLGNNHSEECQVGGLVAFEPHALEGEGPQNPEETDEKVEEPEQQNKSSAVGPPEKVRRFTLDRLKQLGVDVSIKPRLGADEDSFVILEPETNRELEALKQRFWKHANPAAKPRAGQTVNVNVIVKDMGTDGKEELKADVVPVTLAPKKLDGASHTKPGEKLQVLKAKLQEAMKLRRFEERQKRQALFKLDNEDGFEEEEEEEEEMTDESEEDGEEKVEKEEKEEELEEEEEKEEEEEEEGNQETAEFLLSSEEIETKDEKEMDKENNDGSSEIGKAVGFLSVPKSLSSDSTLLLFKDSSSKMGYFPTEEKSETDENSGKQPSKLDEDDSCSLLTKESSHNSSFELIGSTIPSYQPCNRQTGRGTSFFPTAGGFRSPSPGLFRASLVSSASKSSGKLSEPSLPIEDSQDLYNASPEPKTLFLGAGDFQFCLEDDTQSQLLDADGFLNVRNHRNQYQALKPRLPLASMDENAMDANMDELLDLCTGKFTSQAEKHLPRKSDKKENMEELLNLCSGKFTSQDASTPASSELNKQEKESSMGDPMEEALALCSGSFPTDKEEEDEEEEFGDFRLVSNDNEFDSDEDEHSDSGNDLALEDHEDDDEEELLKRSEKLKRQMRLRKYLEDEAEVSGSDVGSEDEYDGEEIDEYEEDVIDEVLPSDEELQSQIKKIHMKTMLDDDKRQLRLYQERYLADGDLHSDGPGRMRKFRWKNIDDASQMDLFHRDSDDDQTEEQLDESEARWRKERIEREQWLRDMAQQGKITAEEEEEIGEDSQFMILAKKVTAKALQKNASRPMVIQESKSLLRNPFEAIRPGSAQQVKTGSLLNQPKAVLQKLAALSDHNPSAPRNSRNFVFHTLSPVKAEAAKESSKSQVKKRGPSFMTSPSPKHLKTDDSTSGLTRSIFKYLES
Method: as §1

Claspin = target: T3, Claspin (human, UniProt Q9HAW4 1-1339); test: co-immunoprecipitation with anti-FLAG resin from HEK293T cells, immunoblot for endogenous Claspin (FIG. 2A)
T3 construct: also called endogenous Claspin; wild type Claspin
T3 sequence (Q9HAW4 whole entry): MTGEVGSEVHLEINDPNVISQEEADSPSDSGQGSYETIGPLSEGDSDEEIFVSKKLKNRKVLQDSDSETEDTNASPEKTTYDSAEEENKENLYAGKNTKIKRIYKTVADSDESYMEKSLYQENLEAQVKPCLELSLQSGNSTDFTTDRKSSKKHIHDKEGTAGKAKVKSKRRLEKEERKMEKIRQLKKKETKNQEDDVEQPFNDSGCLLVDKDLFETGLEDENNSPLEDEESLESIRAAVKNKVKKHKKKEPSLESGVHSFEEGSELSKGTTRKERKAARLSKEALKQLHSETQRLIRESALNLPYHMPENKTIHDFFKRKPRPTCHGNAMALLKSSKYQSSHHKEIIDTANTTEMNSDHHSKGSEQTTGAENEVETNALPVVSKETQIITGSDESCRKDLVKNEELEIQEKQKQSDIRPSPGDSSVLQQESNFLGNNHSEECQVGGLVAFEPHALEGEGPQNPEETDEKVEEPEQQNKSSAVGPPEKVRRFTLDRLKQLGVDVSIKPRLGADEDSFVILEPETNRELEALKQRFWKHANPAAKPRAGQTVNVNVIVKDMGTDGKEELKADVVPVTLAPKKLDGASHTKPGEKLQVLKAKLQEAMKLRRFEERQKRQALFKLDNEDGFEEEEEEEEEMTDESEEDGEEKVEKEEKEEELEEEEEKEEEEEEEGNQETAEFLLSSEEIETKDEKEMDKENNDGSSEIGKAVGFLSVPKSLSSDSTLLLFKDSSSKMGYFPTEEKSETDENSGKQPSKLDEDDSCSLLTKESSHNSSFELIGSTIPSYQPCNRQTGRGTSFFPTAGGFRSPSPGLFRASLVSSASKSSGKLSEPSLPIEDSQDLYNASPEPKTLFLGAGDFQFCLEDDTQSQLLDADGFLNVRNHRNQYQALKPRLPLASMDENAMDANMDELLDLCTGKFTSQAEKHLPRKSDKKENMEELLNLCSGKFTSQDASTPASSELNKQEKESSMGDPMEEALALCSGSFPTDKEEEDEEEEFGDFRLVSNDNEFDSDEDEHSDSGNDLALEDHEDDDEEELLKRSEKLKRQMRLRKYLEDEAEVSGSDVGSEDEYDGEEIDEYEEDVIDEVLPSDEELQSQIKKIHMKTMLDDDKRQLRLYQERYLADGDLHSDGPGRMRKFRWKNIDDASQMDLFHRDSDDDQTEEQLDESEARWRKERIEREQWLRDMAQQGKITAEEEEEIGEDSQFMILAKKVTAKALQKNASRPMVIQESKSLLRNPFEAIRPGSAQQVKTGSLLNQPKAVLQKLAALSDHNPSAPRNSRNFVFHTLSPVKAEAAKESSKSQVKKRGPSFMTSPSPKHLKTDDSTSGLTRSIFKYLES
Method: To test whether APC/C^Cdh1 has a role in the degradation of Claspin during G0/G1, the expression of Cdh1 was reduced in T98G cells using a validated […] (SEQ ID NO:21). T98G cells were serum starved following knockdown of Cdh1, and the expression levels of Claspin were analyzed at various time points thereafter. FIGS. 2A-D are immunoblots showing Claspin is degraded in G0 and G1 via the APC/C^Cdh1 ubiquitin ligase. […] HEK293T cells were transfected with the indicated FLAG-tagged constructs or an empty vector (EV). Whole cell extracts (WCE) were immunoprecipitated (IP) with anti-FLAG resin, and immunocomplexes were probed with antibodies to the indicated proteins.

T1 sequence (Q9HAW4 other isoform, or with tags, fused parts or gaps limits assumed): as the sequence (Q9HAW4 whole entry) above, with E86A, E87A, N88A counted along it

binding result (FLAG-tagged Claspin(EEN)): no binding
binding result (FLAG-tagged Claspin(ENL)): no binding
B1: HA-tagged Cdh1 (other)
chain: MDQDYERRLLRQIVIQNENTMPRVTEMRRTLTPASSPVSSPSKHGDRFIPSRAGANWSVNFHRINENEKSPSQNRKAKDATSDNGKDGLAYSALLKNELLGAGIEKVQDPQTEDRRLQPSTPEKKGLFTYSLSTKRSSPDDGNDVSPYSLSPVSNKSQKLLRSPRKPTRKISKIPFKVLDAPELQDDFYLNLVDWSSLNVLSVGLGTCVYLWSACTSQVTRLCDLSVEGDSVTSVGWSERGNLVAVGTHKGFVQIWDAAAGKKLSMLEGHTARVGALAWNAEQLSSGSRDRMILQRDIRTPPLQSERRLQGHRQEVCGLKWSTDHQLLASGGNDNKLLVWNHSSLSPVQQYTEHLAAVKAIAWSPHQHGLLASGGGTADRCIRFWNTLTGQPLQCIDTGSQVCNLAWSKHANELVSTHGYSQNQILVWKYPSLTQVAKLTGHSYRVLYLAMSPDGEAIVTGAGDETLRFWNVFSKTRSTKESVSVLNLFTRIR
notes: not shown: HA tag

binding result (Claspin): no binding
B2: FLAG-tagged Fbxw5 (other, UniProt Q969U6 1-566, looked up)
chain: MDEGGTPLLPDSLVYQIFLSLGPADVLAAGLVCRQWQAVSRDEFLWREQFYRYYQVARDVPRHPAAMSWYEEFQRLYDTVPCVEVQTLREHTDQVLHLSFSHSGYQFASCSKDCTVKIWSNDLTISLLHSADMRPYNWSYTQFSQFNKDDSLLLASGVFLGPHNSSSGEIAVISLDSFALLSRVRNKPYDVFGCWLTETSLISGNLHRIGDITSCSVLWLNNAFQDVESENVNVVKRLFKIQNLNASTVRTVMVADCSRFDSPDLLLEAGDPATSPCRIFDLGSDNEEVVAGPAPAHAKEGLRHFLDRVLEGRAQPQLSERMLETKVAELLAQGHTKPPERSATGAKSKYLIFTTGCLTYSPHQIGIKQILPHQMTTAGPVLGEGRGSDAFFDALDHVIDIHGHIIGMGLSPDNRYLYVNSRAWPNGAVVADPMQPPPIAEEIDLLVFDLKTMREVRRALRAHRAYTPNDECFFIFLDVSRDFVASGAEDRHGYIWDRHYNICLARLRHEDVVNSVVFSPQEQELLLTASDDATIKAWRSPRTMRVLQAPRPRPRTFFSWLASQRR
notes: not shown: FLAG tag

binding result (Claspin): no binding
B3: FLAG-tagged Fbxw4 (other, UniProt P57775 1-412, looked up)
chain: MAAAAGEEEEEEEAARESAARPAAGPALWRLPEELLLLICSYLDMRALGRLAQVCRWLRRFTSCDLLWRRIARASLNSGFTRLGTDLMTSVPVKERVKVSQNWRLGRCREGILLKWRCSQMPWMQLEDDSLYISQANFILAYQFRPDGASLNRRPLGVFAGHDEDVCHFVLANSHIVSAGGDGKIGIHKIHSTFTVKYSAHEQEVNCVDCKGGIIVSGSRDRTAKVWPLASGRLGQCLHTIQTEDRVWSIAISPLLSSFVTGTACCGHFSPLRIWDLNSGQLMTHLGSDFPPGAGVLDVMYESPFTLLSCGYDTYVRYWDLRTSVRKCVMEWEEPHDSTLYCLQTDGNHLLATGSSYYGVVRLWDRRQRACLHAFPLTSTPLSSPVYCLRLTTKHLYAALSYNLHVLDFQNP
notes: not shown: FLAG tag

— patent US20100016408A1 (NEW YORK UNIVERSITY, published 2010)
